The values that follow come from publication PMC8092461 (Nature, 2020).

The test has as its target SARS-CoV-2 RBD (receptor-binding domain of S, residues 331-524) (SARS-CoV-2, UniProt P0DTC2). The experiment in a line: SPR.

B1: C104 IgG (antibody, V domains shown)
VH: QVQLQQWGAGLLKPSETLSLSCAVYGGSLSGYYWSWIRQPPGKGLEWIGEINHFGSTGYNPSLKSRVTISVDTSKSQFSVKLSSVTAADTAVYYCARKPLLYSNLSPGAFDIWGQGTMVTVSS
VL: EIVLTQSPGTVSLSPGERATLSCWASQSVSASYLAWYQQKPGQAPRLLIYGASSRATGIPDRFSGSGSGTDFTLTISRLEPEDFAVYYCQQYGTTPRTFGGGTKVEIK
Turning to B1, the binding result was “binds”.

B2: C002 IgG (antibody, V domains shown)
VH: EVQLVESGGGVVQPGRSLRLSCAASGFTFSIYGMHWVRQAPGKGLEWVAVISYDGSNKYYADSVKGRFTISRDNSKNTLYLQMNSLRAEDTAVYYCAKEGRPSDIVVVVAFDYWGQGTLVTVSS
VL: not shown
Take B2: the binding result is recorded as “binds”.

B3: C105 IgG (antibody, V domains shown)
VH: QVQLVESGGGLIQPGGSLRLSCAASGFTVSSNYMSWVRQAPGKGLEWVSVIYSGGSTYYADSVKGRFTISRDNSKNTLYLQMNSLRAEDTAVYYCARGEGWELPYDYWGQGTLVTVSS
VL: QSALTQPPSASGSPGQSVTISCTGTSSDVGGYKYVSWYQQHPGKAPKLMIYEVSKRPSGVPDRFSGSKSGNTASLTVSGLQAEDEADYYCSSYEGSNNFVVFGGGTKLTVL
Take B3: the binding result was “binds”.

B4: C121 IgG (antibody, V domains shown)
VH: not shown
VL: QSALTQPASVSGSPGQSITISCTGTSSDVGSYNLVSWYQQHPGKAPKLMIYEGSKRPSGVSNRFSGSKSGNTASLTISGLQAEDEADYYCCSYAGSSTLVFGGGTKLTVL
As to B4, the binding result was “binds”.

B5: C119 IgG (antibody, V domains shown)
VH: QVQLVQSGAEVKKPGASVKVSCKASGYTFTSYYMHWVRQAPGQGLEWMGIINPSGGSTSYAQKLQGRVTMTRDTSTSTVYMELSSLRSEDTAVYYCARANHETTMDTYYYYYYMDVWGKGTTVTVSS
VL: QSALTQPASVSGSPGQSITISCTGTSSDVGGYKYVSWYQRHPGKAPKLMIYDVSNRPSGVSNRFSGSKSGNTASLTISGLQAEDEADYYCSSYTSSSTSVVFGGGTQLTVL
As for B5, the binding result is “binds”.

B6: C110 IgG (antibody, V domains shown)
VH: QVQLQQSGAEVKKPGESLKISCKGSGYSFTSYWIGWVRQMPGKGLEWMGIIYPGDSDTRYSPSFQGQVTISADKSISTAYMQWSSLKASDTAMYYCARSFRDDPRIAVAGPADAFDIWGQGTMVTVSS
VL: DIQMTQSPSTLSASVGDRVTITCRASQSISYWLAWYQQKPGKAPKLLIYQASSLESGVPSRFSGSESGTEFTLTISSLQPDDFATYYCQQYNSYPYTFGQGTKLEIK
For B6, the binding result is given as “binds”.
